# Results: article PMC3900572 (The Journal of neuroscience : the official journal of the …, 2010)
# B1: GST-tagged full-length bovine GCAP2 (amino acids 1–204) (natural protein, UniProt P51177 1-204, looked up)
# chain: MGQQFSWEEAEENGAVGAADAAQLQEWYKKFLEECPSGTLFMHEFKRFFKVPDNEEATQYVEAMFRAFDTNGDNTIDFLEYVAALNLVLRGTLEHKLKWTFKIYDKDRNGCIDRQELLDIVESIYKLKKACSVEVEAEQQGKLLTPEEVVDRIFLLVDENGDGQLSLNEFVEGARRDKWVMKMLQMDLNPSSWISQQRRKSAMF
# Biological target: RIBEYE(B)-MBP (rat, UniProt Q9EQH5-2 564-988)
# Test: pull-down
binder,measurement,value
B1,Kd,2.72 µM
